Reference: paper PMC3072757 (Journal of molecular biology, 2010)
Where a chain is given by its changes, count along the chain named. Names may count otherwise. Like-named read-outs stand apart in the source and are kept apart here.

B1: Recombinant wild-type human αB-crystallin (natural protein, UniProt P02511 1-175, looked up)
chain: MDIAIHHPWIRRPFFPFHSPSRLFDQFFGEHLLESDLFPTSTSLSPFYLRPPSFLRAPSWFDTGLSEMRLEKDRFSVNLDVKHFSPEELKVKVLGDVIEVHGKHEERQDEHGFISREFHRKYRIPADVDPLTITSSLSSDGVLTVNGPRKQVSGPERTIPITREEKPAVTAAPKK
B2: W9F/W60F αB-Crys (natural protein, human, UniProt P02511 1-175, looked up)
chain: B1 chain with W9F, W60F

What was measured:
SEC [1] = target: the molecule itself; experiment: SEC
SEC [2] = target: the molecule itself; experiment: SEC; remark: listed apart in the source

| Protein | binding result (SEC [1]) | binding result (SEC [2]) |
| --- | --- | --- |
| B1 | binds | – |
| B2 | – | binds |
